Test results reported in paper PMC11166458, “Caskin2 is a novel talin- and Abi1-binding protein that promotes cell motility” (Journal of Cell Science, 2024).
No end group written: not given here.

Biological target: talin-R7/R8 (residues 1358–1653) (mouse, UniProt P26039 1358-1653)
Assay: MST; Atto488-labeled peptide at 50–200 nM, serial dilution of recombinant R7R8 talin; 20 mM Tris-HCl pH 7.5, 200 mM NaCl, 1 mM TCEP, 0.05% Tween-20; Monolith NT.115
Settings: both partners purified

B1: Atto488-labeled Caskin2-LD peptide (peptide, UniProt Q8WXE0 1187-1202, looked up)
peptide: STMFDALADQLDAMLD
modifications: also: Atto488 label
notes: Caskin2 C-terminal LD motif peptide; limits 1187–1202 are printed for the Caskin2-LD peptide in the legend of the structure; The text names L1183 as a contact residue of the peptide, which lies outside 1187–1202; source: synthetic peptide (MPIB Core Facility)
  Kd: ~2700 nM
